Results: the DeepSol protein solubility set

Experiment: soluble on expression in E. coli; label from the status in PepcDB or PDB records

## MSLHKKDIIRLLETIAVYMELKGDNPFKVSAFRKAAAALEQDDRSLSEMDDMMSLSGIGKGTYSVIKEYIDEGKSSTLESLQKEVPEGLVPLLKLPGLGGKKIAKLYKELGVHDAESLKEACEQQKVQGLAGFGKKSEEKILQALGEAGKQPERFPIGYALRIAREIEEHLSQFTHIIKFSRAGSLRRARETVKDLDYIIATDHPAEVREQLLELPNIKSVIASGDTKVSVILSFEYETSVDFRLVTEEQFPTTLHHFTGSKDHNIKMRQIAKERGERISEYGVETVETGEIKTFPSEREFYAHFGLPLIPPEIRESEGHHHHHH
  soluble on expression in E. coli: soluble

## MSTIAAGRFAKDDVDQDTKWWKEYPSKHYIERARPQNYYDEFVQNAWSKSKRLARAASFTNLTYIKDKDMDFPIRKSDSVSTLAPSLALPQYCREAQRIVHTVPVYKPTVHDWYNKSYSDARWRDTHREINKPYKPLDTYISPASSHVPYYSFQTKRIFFDEKARQLAPYLKESQRYMDRYVSSRLKADDYANRFAYTAYEWRKPQDHSFNREFMTTQGVFVATPTGIPHQHYDKFGMRRLYKRTGRFFF
  soluble on expression in E. coli: not soluble

## SLSARSSHLSQPVVKSVLVYRNGDPFYAGRRVVIHEKKVSSFEVFLKEVTGGVQAPFGAVRNIYTPRTGHRIRKLDQIQSGGNYVAGGQEAFKKLNYLDIGEIKKRPMEVVNT
  soluble on expression in E. coli: soluble

## MSFKDYEYKRPNIEELKEKFTVALEKFDNAKTVEEQKQVIHSINEIRNDFGTMGNLCYIRHSVDTTDAFYKEEQDFFDEFSPVVQGYGTKYYNALIHSPFREELEAYYGKQLFALAECDLKTYSDEVVKDLQLENKLSSQYTQLLASAKIDFAGEERTLSQLIPFMQGKERSERKAASEAYYGFLAENEEELDRIYDELVKVRTKIAKSLGFKNFVELGYARMYRTDYNAEMVANYRQQVLDYIVPVTTELRKRQQARIGVEKLAYYDENFEFPTGNPTPKGDADWIVNHGKTMYKELSAETDEFFNFMLDNDLLDLVAKKGKAGGGYCTYIENYKAPFIFSNFNGTSGDIDVLTHEAGHAFQVYESRKFEIPEYNWPTYEACEIHSMSMEFFTWPWMKLFFEEDADKYYFSHLSSALLFLPYGVSVDEYQHYVYENPEASPEERKTAWRNIEKKYLPHRDYEDNDYLERGGFWQRQGHIYSSPFYYIDYTLAQICALQFWKRARDNRQEAWEDYVNLCQQGGSKSFLELVEVANLTSPFAEGCVKSVITEIEAWLHAIDDTKL
  soluble on expression in E. coli: not soluble

## MENKTVNQVIHYVYEGGGEAATDHNATVVFSQTITTDKVTGEKTYSDWTADNGDSFASVTSPVIDGYTADQLKVSEMTGITVDTEDISVTVTYTRNQGTIDVTYIDETTGKILEHHHHHH
  soluble on expression in E. coli: not soluble

## MGSDKIHHHHHHMESFNEYHIDPKQFPFLKNFQDNWQVIRDEYTSFINNASNEELKFTYDVLGPKSQTIKTKGKSKYSAFGILFQGMFIEKYIQAHQIKYPDYGPDEASKKALVLREKYFTNLANVIKDVNLIEDDIIRNVYYGTFHPGLDIKLHVNYNPHTNRGYLGLIVPEGDVAMKICHDQLYWHEGKFLVLDHSYPHCPHNYTSYDRTVLVVDFFKPDKPRDEVIEFEKEQVTQRMQDNPYSLGVFGKSDKAKEEDFIKYGLAHQLEWDKALI
  soluble on expression in E. coli: not soluble

## MVATAFCDNIGFFKSPTEKRCDKDYECSGTDLCGHYVCTPLSEFRKCPEDKRCGFEYSCMSGVCRYMSDFDAERRFSNFGPDMKCKDSRVCPIGLHCSNGNCV
  soluble on expression in E. coli: not soluble

## GPHMTQEEAVVNASLWEYVRLRESYDADTAQYAYDLVSNFSAPMVRQNYQQFFNYPNPTSPQVILGKHGRLEVEHIASNDVTPGVQQIRYKRTLIVDGKMPMASTWTATVRYEKVTSLPGRLRLTNPGGLVVTSYQTSEDTVSNAGHSEP
  soluble on expression in E. coli: soluble

## MVLSIERKRAIVQYVKSRKIATVSELAKHFEVHEATIRRDLTSLEKDKKLKRTHGGVMIEEKVVSEPNWKKRSEVRYEEKQRIATLAATMVKDGDTIILDAGTTTGHIATALKDRSKLTVITNDINVASIMRFSPSKVIVTGGVIYPETFILNGMITSGTLQSIHVHKAFVTTPALDIDKGLMHYDEYLIPAKQQMLHSADEVILVTDHTKFGRISLYKYAALDEISSIITGKEIDPVLKEQFEEKGMQIYTTLEHHHHHH
  soluble on expression in E. coli: soluble

## MGSDKIHHHHHHMINLSKKLIRQVAQANAKFGLIKDGDRVLLGLSGGKDSLALAHLLNRMQAHAPFKFELEAVTLSYGMGEDYSHLHAHCEEHGIKHSVLDSNIYEVSGDTIRENSSFCSYFSRMRRGALYTYALEKGFNKLAIAHHLDDAAESFFMNFIHNGALRTLAPIYQSKRGITVIRPLIFVRERQLRDNATQNELSVIGNEFCPGMKLSEKNVKFPHAREEAKQLLANLEKDHPKLFTSLKTAFANLHTESFWLQKA
  soluble on expression in E. coli: not soluble

## MSLTTELVDWTHEQKCRKAVASLEKNGFTAVYCGTGQEALEYIVAEAAEAESVGFGGSMSVDDLKVIERIREMGKELLIHGAPGLSLEERVTIMRRQLTCDLFLAGTNALTLSGWLVNIDATGNRVGSMFFGPRKVIVVAGRNKIVDGGVQEAIDRIKEWASPPNARRLNYKTPCGTTGFCSDCNSPDRICRITTVIDRKPRLTDLRVLVVNEEMGFLEHHHHHH
  soluble on expression in E. coli: soluble

## MAGQEDPVQREIHQDWANREYIEVITSSIKKIADFLNSFDMSCRSRLATLNEKLTALERRIEYIEARVTKGETLT
  soluble on expression in E. coli: soluble

## MGSDKIHHHHHHVSKPHYKTTNWKQYNQALINRGSLTFWIDEDAIAKWKAKVEQPKKGRPRVFSDLAITTALMVKRIFSMPLRALQGFINSVFKLGDIPLSCPHYTCISKRAKTVNIAFKTKTRGAIKHLAIDSTGLKVYGEGEWKVKKHGTDGKRRVWRKLHIAVDTHSHEIIAAELSLSGVTDAEVMPNLLKQTHRKIRNISGDGAYDTKACHEAVRRKRALVLIPPREGAALWEQGHPRNLAVSWQQLHGSNKQWKKRYGYHRRSISETAMYRIKQLLGGTLSMRNYNAQVGETYAMIRALNKLTGLGMPETHYVA
  soluble on expression in E. coli: not soluble

## MGSDKIHHHHHHMARYYMPAEGDSYLKKVWTWATTGKRFRPSFPRTIEFQTLSTCNAKCIFCPHKHSPKDIPHGRMDDALFRKIVDECARHFVGRVSPYLTNEPLMDKRMPEMLRYIHDKMPFFTKSKINTNAALLTEETGEALIRAGLTHLWISVNGYSPETYRTSMDLDLDRTLTNIDTFLATKRRLGAKNPKVIVTTVETNIVKPELDYARKYWKERDIVFKVHAMDNRAGADSLTFKASKPKLKRNCDLFLKQAYIVENGDMIICCHDWKQTVKVGNVAETSIKEVWNSRYFTDLIRDYVRGDYSRLGICAKCSS
  soluble on expression in E. coli: not soluble

## MYAGINYDQLFGTEQVRERQLPLHSSQAQHFLNEVKPILDNRCVVCHACYDAPCQLKMTSAEGIDRGASKALVYQGTRLTAATPTRLYEDAQLTQEWRAAGFHPVLNERNQTAQANLDAGVMARLLMQKERHPLPQQDQLQGFDFSIDREQTCPTINEMDHFEQVNPNWGMPFGMPNLSPKEYTTLLSWLQEGAVMNQALPLSAQEQALVTEYEALLNHSSRKNQLAARYIYEHLFLSHLYFSEIAQERPRFFKLIRSSTPPGEPVKRIVTRRPYDDPGVERVYYRLVPEQETIVDKTHMPFALNKQRIANWKLWFIDADYEVAELPSYRPDIAANPMSAFIDLPVKARFKFLLDNAQNTVMAFIKGPVCRGQLALNVINDRFWVFFLDPEKADLPEVNEFYRSQVNNLKLPAEQENTALPLSNWVRYSLQQSRYLEAKSEFINQWFKNGTHLTTDIIWDGAGINPNAALTIFRHFDSASVVQGLVGEPPKTAWIMDYALLERIHYLLVAGFDVYGNFGHQLITRMFMDFLRMEGESNFVALLPRDMRHQELSSWYQNQSVQFSDFLQRNVKPFDQPTSVNYVTDNPKQELFAKLRKQVQSVLSDRYVITQTGFKAEHEFALRQIDHLRGEGLLPIPQLMMLMIESEQGKPQLFTLIHNNAHTNISSLFDEQNNRDPKNDNLTLVRGVVGSYPSAYLTLKENQIPELYQRLAAMKSEQDYVALLDRFAVRRSSPEFWAFSDLVHQWYRQDQPIEFGLLDYNRFENRLEHHHHHH
  soluble on expression in E. coli: not soluble

## MKSVKEIRKSQVNSMISDQYEIFHVKDMVSPEKTIYHYHDFYEVHCTLKGVATFFLDGHQFDVEAGTVLLIHYHDLHRIIKQSTDDFERMYIFLTPDFLQQRSSKRTNLSACFQHFGQRRSKVIKVDVAKLANYLTPLDHSPLPEEYGADVRYEQQLLDFLIYLNQLVLKEENESQPKQMIENER
  soluble on expression in E. coli: not soluble

## MTFGAGHLRAAEALIEAVRKKSPEAEITHLDFGAFISKTLNTIVKNTYIELIKHTPRLYGMFYYRTSKIRPQSLIQRFINILGRKEFLDYIKGLNPDVIICTYPVIAGVLGELRFKGVIHAPVVSVVTDYGVHSQYIQRGVDLYIAGCQDVYKDLIAGGIARERIRITGIPVDPKFEEELEHHHHHH
  soluble on expression in E. coli: not soluble

## MKLVIDAGHGGYDSGAVGNGLVEKNLTLQIARRVRDILTVNYPITIKMTRDSDVFISLSERANIANAFSADYFISFHINSGGGTGFESYIYNALSNSSTAYAKQQKMHTAVNPVLTKYGLRDRGAKKENYAVLRETAMDAILTETAFIDTAFDANLLKNPQFIEDLSQAYANGIAAIFGVAPNPQPPNPQPVPQTKGIAYVLGKNVNLRNGPSTSSSVIRQLNSPESYVVYQESNGWLDLGNGQWVYNDSSYINFVKTSNSDGSPIGVAYIQGMNVNLRSGPSTTSAVIRQLNSPESYLVYINENGWLNLGGNQWVYNDPAYIKYTQY
  soluble on expression in E. coli: not soluble

## MGHHHHHHSHMYSEIQRERADIGGLMARPEYREWNPELIKPKKLLNPVKASRSHQELHRELLMNHRRGLGVDSKPELQRVLEHRRRNQLIKKKKEELEAKRLQCPFEQELLRRQQRLNQLEKPPEKEEDHAPEFIKVRENLRRIATLTSEEREL
  soluble on expression in E. coli: not soluble

## MEKDHSSLFYYDQYSKFSRSSQGCRSLNKFSRFNNFRTSACFFDASKPKSDVQPFKKIRYSSEHGCLTMSFDSPSSCPSTSFLCDLSQNLVRGNAHIPKFYTRDLISTIGSRDHYSVDLIPKFGENTSIMKDFKDWGTDLSLQM
  soluble on expression in E. coli: not soluble

## MGSDKIHHHHHHMEWIDRFIELLFYGEKEEAYKLKFDHFPRRLYKYEVIDEKRLLALKNNKIWFANPDKLNDPFDSCGVFFDKKVLCNYTNKKSIDEYIDGLKRNIKVCCFSEELNSMPMWAHYANNHTGICIEYDFSKLNYMSEFSKYIFPIRYETEKYDITKFLERIFKEEAEERMYLLFFLMQIKHVSWSYEKEWRIILKAYEDKNEGIVCPIKPEGIYLGLNCSEENKEKLKRIVVENIKCPIYEIEKTEGKLFEFKTKNVSEKNYK
  soluble on expression in E. coli: not soluble

## MSLRVMIVDDHGTNRELCRFILAHIASHIDTFEDGQQAIDAMREMEILPDVILLDVMMPIKDGFVTAKEIRQAFVKHHIPIIFLTVLDDRDSFEKCLALGDDFILKPVERSVLIAKVQAHYRIVKMHNEGHHHHHH
  soluble on expression in E. coli: not soluble

## MAHHHHHHMAEIHQDKTESAVSSSGILKNVVRHSPKVSSKEIEDSEIRIVKMAHEEENRKLQKMGKCAKDYTLPCPKFWKKKIMNKSENICIASSSYNGFCTPRQSFDNFTKSEKMKFETSCNVEWGCRNVVADACESGKRNYNEPCPEGFISQNDNTCMADLTVYDGLCNGQKIDFTHLTNDEKQNWSVACEAYWPCYIDCSLNNKALSTCPSNWKEINSYECIPPYSYNGPCKDTKNFKFFNELMKKKFEEKCKVTFVCTDLCEKNYRQECPLHWMKEGGYCLAPPSFNLCDRKKYLYSNLTQEEEKKKFEQECSVQWPCQKTSFCDMDWTAECPLNWVKEVPRQGRDQEGGDKYICTADSSLYRGRCAFISLPNGADEETKRELASTCDTPWPCSATGATAGAPEEGGPVPRSDSKIVERRNSAFTNGPVTFQGDVRTNGGPTYRVVDSQGDVSLADIMR
  soluble on expression in E. coli: not soluble
